Results from the supplement of paper PMC6755084.

Tested on: F1*sub RNA substrate (template-directed ligation)
Assay: fraction ligated after 30 min (ligated reads / total reads); higher = more ligase activity; sequences stand for … in GAGACCGCAACTGAAAAGTTGT…AGTTCTGCACGTAGAAGCAAAAGGC
Conditions: 42 °C
Procedure, shortened: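 Ligase ribozyme variants were made from oligo-pool templates by PCR amplification, T7 transcription and gel purification. After gel separation, ligated and unligated bands were reverse transcribed with barcoded primers and sequenced on a MiSeq, with core bases filtered at quality ≥20. The fraction ligated for each variant was the number of ligated reads divided by total reads.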

Sequence | fraction ligated
TACACTTGTCGTAAGCACTTTGGATGGGTTG [3d691] | 0.151
TATACTTTCGTAAGCACTTTGGATGGGTTGA [3d801] | 0.539
ATCACTTGTCGTAAGACACTTGGATGGTTGA [3d257] | 0.216
TATCCTTGCGTAAGACACTTTGGATGGGTTG [3d999] | 0.791
TATCACTTGTGTAAGACACTTTGGAGGTTGA [3d1803] | 0.0314
TATCACTTTCGTAAGAACTTGGATGGGTTGA [3d1540] | 0.829
TATCATTGTCGTAAGACACTTTGGAGGTTGA [3d1286] | 0.0106
TATCACTTGTCTAGACACTTGGATGGGTTGA [3d1829] | 0.796
TATATTGTCGTAAGACATTTGGATGGGTTGA [3d769] | 0.632
TATCTTGTCGTAAGACACTTGGATGGGTTGA [3d751] | 0.776
ATCACTTGTCGTAAGACACTTTGGATGGTTA [3d273] | 0.68
ATACTTGTCGTAAGACACTTTGGAGGGTTGA [3d63] | 0.0364
TATCACTGTCGTAAGAACTTGGATGGGTTGA [3d1419] | 0.847
TATCCTTGTCGTAAGAACTTGGATGGGTTGA [3d1076] | 0.591
TATACTGTCGTAAGACACTTGGATGGGTTGA [3d789] | 0.803
TATCACTTTCGTAAGAACTTTGGATGGGTTA [3d1545] | 0.851
TATACTTGCTAAGACACTTTGGATGGGTTGA [3d813] | 0.669
TATCACTTGTCGTAAGACACTTTGGTGGGTTA [2d291] | 0.018
TATCACTTGGTAAGACACTTTGGATGGGTTA [3d1597] | 0.733
ATCACTGTCGTAAGACACTTGGATGGGTTGA [3d117] | 0.743
TATACTTGTCGTAAGCATTTGGATGGGTTGA [3d895] | 0.747
TATCACTTGTCGTAAGACACTTTGGAGGTTA [3d2277] | 0.0104
TATCATTGTCGTAAACCTTTGGATGGGTTGA [3d1228] | 0.79

Sequence | fraction ligated
TTCATTGTCGTAAACACTTTGGATGGGTTGA [3d324] | 0.068
TATCCTTGTCGTAGACACTTTGATGGGTTGA [3d1049] | 0.804
ATCACTTTCGTAAGACCTTTGGATGGGTTGA [3d131] | 0.752
TACACTTGCGTAAGCACTTTGGATGGGTTGA [3d606] | 0.764
TATCCTTGTCGAAGACACTTTGGATGGGTTA [3d1040] | 0.404
ATACTTTCGTAAGACACTTTGGATGGGTTGA [3d49] | 0.0977
ATCACGTCGTAAGACACTTTGGATGGGTTGA [3d105] | 0.749
TATCCTGTCGTAAGACATTTGGATGGGTTGA [3d960] | 0.766
TATATTGTCGTAAGACACTTTGATGGGTTGA [3d771] | 0.288
TATCACTTGTCGTAAGACACTTTGTGGGTTA [3d2262] | 0.00904
TATCACTTGGTAAGACCTTTGGATGGGTTGA [3d1590] | 0.765
TATCACTTTCTAAGAACTTTGGATGGGTTGA [3d1483] | 0.87
TATCACTTGTGTAAACCTTTGGATGGGTTGA [3d1745] | 0.807
TATCACGTCGTAAGACACTTTGGATGGGTTGA [2d128] | 0.791
TACACTTGTCGTAAGAATTTGGATGGGTTGA [3d692] | 0.123
TATCACTTGTCTAAGACCTTTGATGGGTTGA [3d1865] | 0.732
TATCACTTGTCTAGACACTTTGATGGGTTGA [3d1830] | 0.739
TATACTTGTCGTAAGCACTTTGGATGGGTTG [3d902] | 0.502
TACACTTGTCGTAGACACTTTGATGGGTTGA [3d666] | 0.0743
TATCCTTGTGTAAGACATTTGGATGGGTTGA [3d1007] | 0.796
TACACTTGCGTAAGACACTTTGGATGGTTGA [3d614] | 0.102
TATCACTTTCGAGACACTTTGGATGGGTTGA [3d1493] | 0.79
TATCTTGTCGTAAGACACTTTGGTGGGTTGA [3d753] | 0.563

Sequence | fraction ligated
TATCACTGTCGTAAGAACTTTGGATGGGTTA [3d1424] | 0.851
TTCACTTGTCGAAGACACTTTGGATGGGTTA [3d427] | 0.28
TATCCTTGTCGTAAGACACTTTGTGGGTTGA [3d1105] | 0.0549
TATCACTTGTCGAAGACACTTTGGATGGTTGA [2d218] | 0.615
TATCCTTTCGTAAGACACTTTGGATGGGTTA [3d982] | 0.371
TATCACTTGCGTAAGCCTTTGGATGGGTTGA [3d1650] | 0.806
TATCACTTGTCGTAAACACTTTGGTGGGTTA [3d2096] | 0.057
TTCACTGTCTAAGACACTTTGGATGGGTTGA [3d340] | 0.774
TATCATTGTGTAAGACACTTTGGATGGGTTA [3d1185] | 0.677
TATCATTGTCGTAAGACATTTGGAGGGTTGA [3d1265] | 0.23
TATCACTGTTAAGACACTTTGGATGGGTTGA [3d1343] | 0.828
TATCCTGTCGAAGACACTTTGGATGGGTTGA [3d954] | 0.786
TATCACTGTCTAAGAACTTTGGATGGGTTGA [3d1362] | 0.849
TATACTTGTCGTAAGAACTTTGGAGGGTTGA [3d907] | 0.032
TATCATTGTCGTAAGACACTTTGGTGGGTTA [3d1284] | 0.0335
TATCACTTGTCGTAGAACTTTGGTGGGTTGA [3d2016] | 0.138
TCACTTGTCGTAAGAACTTTGGATGGGTTGA [3d14] | 0.399
ATCACTTGTCGTAAGACATTGGATGGGTTGA [3d246] | 0.739
TACACTGTCGTAGACACTTTGGATGGGTTGA [3d572] | 0.322
TATCACTTGTCGTAAGCACTTTGGAGGGTTG [3d2147] | 0.116
TATCACTGTCGTAAGACACTTTGATGGGTTG [3d1452] | 0.754
TATCCTTGTCGTAAGACACTTTGGGGGTTGA [3d1110] | 0.0067
TATCACTGTGTAAGACACTTTGGAGGGTTGA [3d1354] | 0.0274

Sequence | fraction ligated
TATCACTTGTCGTAAGACACTGGTGGGTTGA [3d2233] | 0.00438
TATCATTGTCTAAGACACTTTGGTGGGTTGA [3d1196] | 0.222
TACACTTGTCTAAGACATTTGGATGGGTTGA [3d638] | 0.457
TTCACTTTCGTAAGCACTTTGGATGGGTTGA [3d360] | 0.466
TATCACTTGCGTAAACACTTGGATGGGTTGA [3d1642] | 0.802
TATCCTTGTCGTAGACCTTTGGATGGGTTGA [3d1046] | 0.773
TATCACTTGCGTAAGAACTTTGATGGGTTGA [3d1661] | 0.853
TATCCTTGTCGTAAGACATTTGATGGGTTGA [3d1091] | 0.775
TTCACTTTCGTAAGACACTTTGATGGGTTGA [3d365] | 0.0352
TTCACTTGTGTAAGCACTTTGGATGGGTTGA [3d391] | 0.775
ATCACTTGTCGAAGACACTTTGGATGGGTTG [3d197] | 0.795
TATCACTTGTCGTAGCACTTTGGATGGTTGA [3d2010] | 0.171
GTATCACTTGTCGTAAGACACTTTGGATGGTTGA [s35] | 0.242
TATCACTTGTCGTAAACACTTTGATGGTTGA [3d2091] | 0.0645
TATCCTTTCGTAAGACACTTTGGTGGGTTGA [3d979] | 0.0729
ATCACTTGTCGTAAGACATTTGGATGGGTTGA [2d17] | 0.78
TATCACTTGTCGTAAGACATTTGGAGGGTTA [3d2225] | 0.0022
ATCACTTGTCGTAAGACACTTTGGTGGGTTG [3d269] | 0.0136
TATCACGTCGTAGACACTTTGGATGGGTTGA [3d1298] | 0.801
TTCATTGTCGTAAGACACTTTGGAGGGTTGA [3d332] | 0.175
TTCACTTGTCGTAAGCCTTTGGATGGGTTGA [3d453] | 0.525
TATACTTGTCGTAAGACACTTTGTGGGTTGA [3d933] | 0.0152
ATCACTTGTGTAAACACTTTGGATGGGTTGA [3d159] | 0.837

Sequence | fraction ligated
TACACTTGTCGAAGACACTTTGGATGGGTTG [3d658] | 0.593
TATCATTGTCGTAAGACACTTTGAGGGTTGA [3d1278] | 0.00985
TATCATTGTCGAAGACCTTTGGATGGGTTGA [3d1205] | 0.768
TATCCTTGCGTAAGACACTTTGGTGGGTTGA [3d995] | 0.131
TATCACTCGTAAGACACTTTGGATGGGTTGA [3d1293] | 0.783
TATCACTTGTGTAGACACTTTGGATGGTTGA [3d1741] | 0.252
TATACTTGTCGTAAGACACTTTGATGGTTGA [3d935] | 0.0546
TACATTGTCGTAAGACACTTTGGATGGGTTA [3d564] | 0.0607
TACACTTGTCGTAGCACTTTGGATGGGTTGA [3d661] | 0.0075
TATCACTTTCGAAGACCTTTGGATGGGTTGA [3d1497] | 0.765
TTCACTTGTGTAAGACACTTTGGATGGGTTGA [2d31] | 0.781
TACACTTGTCTAGACACTTTGGATGGGTTGA [3d633] | 0.195
TTCACTTGTCGTAAGACATTTGGAGGGTTGA [3d480] | 0.0169
TATCACTTTCGTAAGACACTTTGGAGGTTGA [3d1578] | 0.0266
TATCCTTGTCGTAGAACTTTGGATGGGTTGA [3d1045] | 0.792
TATCACTTGTCGTAGACACTTTGGAGGGTTGA [2d230] | 0.167
TATCACTGTCTAAGACACTTTGGTGGGTTGA [3d1367] | 0.34
TACACTTGTCGTAAGCCTTTGGATGGGTTGA [3d683] | 0.0763
TATCACTGTCTAAGACACTTTGATGGGTTGA [3d1366] | 0.77
TACACTTGTCTAAGACACTTTGGATGGGTTGA [2d54] | 0.609
